The record followed here is paper doi:10.1101/2024.01.16.575974, “Structural insights into peptidoglycan hydrolysis by the FtsEX system in Escherichia coli during cell division” (bioRxiv, 2024).

First the molecules themselves.
B3: Escherichia coli EnvC (EcoEnvCΔ34) (natural protein, UniProt P37690 35-419, looked up)
chain: DERDQLKSIQADIAAKERAVRQKQQQRASLLAQLKKQEEAISEATRKLRETQNTLNQLNKQIDEMNASIAKLEQQKAAQERSLAAQLDAAFRQGEHTGIQLILSGEESQRGQRLQAYFGYLNQARQETIAQLKQTREEVAMQRAELEEKQSEQQTLLYEQRAQQAKLTQALNERKKTLAGLESSIQQGQQQLSELRANESRLRNSIARAEAAAKARAEREAREAQAVRDRQKEATRKGTTYKPTESEKSLMSRTGGLGAPRGQAFWPVRGPTLHRYGEQLQGELRWKGMVIGASEGTEVKAIADGRVILADWLQGYGLVVVVEHGKGDMSLYGYNQSALVSVGSQVRAGQPIALVGSSGGQGRPSLYFEIRRQGQAVNPQPWLGR

Data set [1] addresses B3. Description: cryo-EM structure; FtsE^E163QX in peptidiscs incubated with EnvC, 2 mM ATP-Mg2+, 8 min at 37°C before freezing. The settings on record: both partners purified.
Data set [2] deals with the molecule itself. The data set is described as follows: cryo-EM structure; WT EcoFtsEX in peptidiscs, 3 mM ATPγS, 2 mM Mg2+, incubated 8 min at 37°C before freezing.
Data set [3] concerns the molecule itself. The data set is described as follows: cryo-EM structure; FtsE^E163QX in peptidiscs incubated with EnvC, 2 mM ATP-Mg2+, 8 min at 37°C before freezing.
Data set [4] deals with T1, Escherichia coli FtsEX complex (wild type) in peptidiscs (Escherichia coli (str. K-12, MG1655), UniProt P0A9R7 1-222; P0AC30 1-352).
T1 sequence (looked up) 1: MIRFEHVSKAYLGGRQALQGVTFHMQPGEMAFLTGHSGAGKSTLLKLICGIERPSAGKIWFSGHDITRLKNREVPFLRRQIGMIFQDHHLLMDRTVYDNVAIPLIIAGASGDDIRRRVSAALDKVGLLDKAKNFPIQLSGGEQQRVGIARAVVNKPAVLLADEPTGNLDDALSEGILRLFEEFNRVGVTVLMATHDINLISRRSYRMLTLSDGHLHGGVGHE
T1 sequence (looked up) 2: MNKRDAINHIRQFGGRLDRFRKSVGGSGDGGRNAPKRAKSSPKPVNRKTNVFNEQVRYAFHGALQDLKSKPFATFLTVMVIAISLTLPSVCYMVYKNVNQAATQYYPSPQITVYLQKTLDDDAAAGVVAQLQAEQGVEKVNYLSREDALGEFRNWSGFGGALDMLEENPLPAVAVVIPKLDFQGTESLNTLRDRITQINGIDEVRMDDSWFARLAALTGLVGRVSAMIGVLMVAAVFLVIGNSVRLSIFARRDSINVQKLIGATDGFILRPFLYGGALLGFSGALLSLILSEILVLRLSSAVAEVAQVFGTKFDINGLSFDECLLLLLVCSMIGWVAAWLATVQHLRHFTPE
Description: cell-based or functional assay.

B1: Escherichia coli FtsX, full length (natural protein, Escherichia coli (str. K-12, MG1655), UniProt P0AC30 1-352, looked up)
chain: MNKRDAINHIRQFGGRLDRFRKSVGGSGDGGRNAPKRAKSSPKPVNRKTNVFNEQVRYAFHGALQDLKSKPFATFLTVMVIAISLTLPSVCYMVYKNVNQAATQYYPSPQITVYLQKTLDDDAAAGVVAQLQAEQGVEKVNYLSREDALGEFRNWSGFGGALDMLEENPLPAVAVVIPKLDFQGTESLNTLRDRITQINGIDEVRMDDSWFARLAALTGLVGRVSAMIGVLMVAAVFLVIGNSVRLSIFARRDSINVQKLIGATDGFILRPFLYGGALLGFSGALLSLILSEILVLRLSSAVAEVAQVFGTKFDINGLSFDECLLLLLVCSMIGWVAAWLATVQHLRHFTPE
notes: FtsX, Escherichia coli str; K-12 MG1655, full length; residues 1-52 not resolved in the maps; Two copies stand in the FtsEX complex; also called EcoFtsX; TMD
With B1, the binding result in data set [1] and in data set [2] was “binds” in each case.

B2: Escherichia coli FtsE E163Q mutant, His-tagged (natural protein, Escherichia coli (str. K-12, MG1655), UniProt P0A9R7 1-222, looked up)
chain: MIRFEHVSKAYLGGRQALQGVTFHMQPGEMAFLTGHSGAGKSTLLKLICGIERPSAGKIWFSGHDITRLKNREVPFLRRQIGMIFQDHHLLMDRTVYDNVAIPLIIAGASGDDIRRRVSAALDKVGLLDKAKNFPIQLSGGEQQRVGIARAVVNKPAVLLADQPTGNLDDALSEGILRLFEEFNRVGVTVLMATHDINLISRRSYRMLTLSDGHLHGGVGHE
notes: FtsE, Escherichia coli str; K-12 MG1655, full length, with E163Q (cannot hydrolyse ATP); Made with the QuikChange kit on pTD68 [PT7::his6-FtsEX]; also called FtsE mutant (E163Q); ATPase mutant; source: E. coli BL21(DE3) pLysS, co-expressed with FtsX, purified (DDM, TALON, peptidiscs, SEC) with ATP; not shown: His6, N-terminal, kept
In the case of B2, in data set [3], the binding result was “binds”.
For B3, the “fold increase of Vmax of ATP hydrolysis with EnvC over FtsEX alone” value in data set [4] is approximately 2.2 fold.
